We go through one sequence from publication PMC4960556.

In this data set the target is prostate-specific membrane antigen (PSMA) (UniProt Q04609). Description: confocal microscopy on cells (binding and internalization). The note with it: 2'-F pyrimidines (stated for PSEP; implied), Flow binding: 50 nM Cy3-RNA on trypsinized, PBS-washed cells, 300 ug/ml yeast tRNA, 30 min, 37 C, internalization: 100 nM in RPMI 1640 + 5% FBS.
Chain of UniProt Q04609 (Q04609 whole entry): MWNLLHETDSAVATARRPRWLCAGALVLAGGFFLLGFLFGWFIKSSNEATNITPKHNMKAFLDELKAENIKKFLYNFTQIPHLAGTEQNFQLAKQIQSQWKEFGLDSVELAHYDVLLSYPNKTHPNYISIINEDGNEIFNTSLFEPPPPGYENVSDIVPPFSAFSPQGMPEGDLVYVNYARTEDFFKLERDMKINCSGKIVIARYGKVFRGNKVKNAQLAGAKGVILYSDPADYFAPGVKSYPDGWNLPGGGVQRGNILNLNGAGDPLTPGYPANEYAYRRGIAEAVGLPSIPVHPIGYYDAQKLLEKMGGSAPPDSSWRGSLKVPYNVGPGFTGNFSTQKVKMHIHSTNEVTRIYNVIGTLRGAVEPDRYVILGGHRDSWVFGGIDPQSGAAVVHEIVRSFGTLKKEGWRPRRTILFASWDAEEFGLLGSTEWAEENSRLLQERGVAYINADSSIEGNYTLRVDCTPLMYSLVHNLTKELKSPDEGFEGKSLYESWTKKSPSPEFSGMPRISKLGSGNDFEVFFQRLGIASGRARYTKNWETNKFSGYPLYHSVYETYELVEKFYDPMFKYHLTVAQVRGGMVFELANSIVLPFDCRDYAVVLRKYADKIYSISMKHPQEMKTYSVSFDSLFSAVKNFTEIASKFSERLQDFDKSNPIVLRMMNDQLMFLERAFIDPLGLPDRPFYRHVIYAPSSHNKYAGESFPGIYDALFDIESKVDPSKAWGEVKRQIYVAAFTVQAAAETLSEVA

Consider “GGGAGGACGAUGCGGAUCAGCCAUGUUUACGUCACUCCUAAAAUGUAGAGAUGCGGUGGUCCUU / GGAUCCCGACUGGCGAGAGCCAGGUAACGAAUGGAUCCAAAAACCUUAGCAGUCUUAUCUAAUUUUGGACCACCGCAUCUCUACAUU / UUAGAUAAGACUGCUAAGGCA [PSEM (monovalent: one PSMA aptamer, one MG aptamer)]”, for which the binding signal (fraction of PSEP fluorescence) was 0.5.
